Measured values reported in article PMC11488661 (Science immunology, 2024).
Positions count from the first letter of the chain named.

B1: g28v2-D46-9_CLK19 (antibody, V domains shown)
VH: QVQLVQSGAEVKKPGASVRVSCKASGYTFTGYYMHWVRQAPGQGLEWMGWINPNNGGVNYAHKFQGRVTMTRDTSISTAYMELSRLRSDDTAVYYCTTALAGHGWRFDYWGQGTLVTVSS
VL: DIQMTQSPSSLSAYVGDRVTITCQASQDISNYLNWYQQIPGKAPKLLIYDASNLEAGVPSRFSGSRSGADFTFTISSLQPEDIATYYCQQYATFGPGTKVDIK
B2: g5-D78-10_CLK19 (antibody, V domains shown)
VH: QVQLVQSGAEVKKPGASVKVSCKASGYTFTGYFIHWVRQAPGQGLEWMGWINPSYGAVNYARKFQGRVTMTRDTSISTAYMELQRLRSDDTAIYHCTIALAGYRWGFDYWGQGALVTVSS
VL: DIQMTQSPSSLSAFVGDRVTITCQARLDIRYSLNWYQQKPGKAPNLLIYDASNLETGVPSRFSGSGSGTNFTFTISTLQPEDIATYYCQQYETFGPGTKVHIK
B3: g5-D78-12_CLK19 (antibody, V domains shown)
VH: B2 VH with F33Y
VL: B2 VL with S76N, H101D
B4: g28v2-D58-10_CLK19 (antibody, V domains shown)
VH: QVQLVQSGAEVKKPGASVKVSCKASGYTFTDYHMHWVRQAPGQGLEWMGWINPRGGGTNYAQKFQGRVTMTRDTSISTAYMDLSRLRSDDTAVYYCTPVLATFRWRFDYWGQGTLVTVSS
VL: not shown
B5: g28v2-D46-6_CLK09 (antibody, V domains shown)
VH: QVQLVQSGAEVKKPGASVKVSCKASGYTFTDYYMHWVRQAPGQGPEWMGWLNPNNGGRNFARKFQDRVTVTRDTSLSTAYMELSRLRSDDTAVYYCARVGEKWTFDIWGQGTMVTVSS
VL: DIQMTQSPSSLSASVGGRVTITCQASQDISNYLNWYQQKPGKAPKLLIYDVSNLETGVPSRFSGSGSGTDFTFTISSLQPEDIATYYCQQYEFFGGGTKVEIK
B6: g28v2-D46-8_CLK09 (antibody, V domains shown)
VH: B1 VH with G31D, V58I
VL: B5 VL with D28G, N31T, I83F
B7: g28v2-D58-5_CLK19 (antibody, V domains shown)
VH: QVQLVQSGAEVKKPGASVKVSCKASGYTFTGYFIHWVRQAPGQGLEWMGWINPNRGGTNYAQKFQGRVTMTRDTSTSTAYMDLSRLRSDDTAMYYCTVVLAAYRWPFAYWGQGTLVTVSS
VL: B5 VL with Q3R, M4V, G17D, S26N, S30R, N53K, P80S, F93T, G96P, E101D
B8: g28v2-D58-4_CLK09 (antibody, V domains shown)
VH: QVQLVQSGAEVKKPGASVKVSCKASGYTFIGYYIHWVRQAPGQGLEWMGWINPNRGGTNYPQKFQGRVTMTRDTSISTAYMELSRLRSDDTAVYYCALWFGEKKTFDIWGQGTMVTVSS
VL: B5 VL with G17D, D28G, I29V, Y36F, P44L
B9: g28v2-D58-7_CLK09 (antibody, V domains shown)
VH: B4 VH with D31G, H33Y, M34I, I51M, R54T, S77N, D82E, T102D, F103Y
VL: B5 VL with S14F, G17D, D28G, I29V, N31K, V51A
B10: g28v2-D58-11_CLK09 (antibody, V domains shown)
VH: B4 VH with M34I
VL: B5 VL with G17D, S30R, V51A, L54F
B11: g28v2-D58-2_CLK09 (antibody, V domains shown)
VH: QIQLVQSGAEVKKPGASVKVSCKASGYTFTDYFLHWVRQAPGQDLEWMGWINPTFGGTNYARNFQGRVTMTRDTSISTAYLELNRLRSDDTAVYYCATDLASNRWRFDYWGQGTLVTVSS
VL: B5 VL with I2L, G17D, D50G, V51A, T85I
B12: g28v2-D58-8_CLK09 (antibody, V domains shown)
VH: QVQLVQSGAEVKKPGASVKVSCKASGYTFTDYYLHWVRQAPGQGLEWMGWINPSTGGRNHARQFQGRVAMTRDTSISTAYMELSRLRSDDTAVYFCTPVLATFRWRFVYWGQGTLVTVSS
VL: B5 VL with G17D, D28G, I29V
B13: g28v2-D58-9_CLK09 (antibody, V domains shown)
VH: QVQLVQSGAEVKKPGASVKVSCKASGNTFTGNYIHWIRQAPGQGLEWMGWLNPNSGGTNYAQQLQGRVTMTRDTSISTAYMELRRLRSDDTAVYYCARVEGLWFGKEWAFDIWGQGTMVTVSS
VL: B5 VL with G17D, D28G, I29V, P44L
B14: g28v2-D58-1_CLK09 (antibody, V domains shown)
VH: B11 VH with L34I, E46V, T54I, F55Y, N63S, Y80F, S102D
VL: B5 VL with G17D, S30T, N31S, Y32F, V51A
B15: g28v2-D58-3_CLK09 (antibody, V domains shown)
VH: B8 VH with E10D, K12R, I30T, G31D, I34V
VL: B5 VL with G17D, D28G, I29V
B16: g28v2-D46-7_CLK09 (antibody, V domains shown)
VH: B4 VH with D31G, L45P, R54N, D82E, Y94F, T97A, T102D, F103Y, R104G
VL: B5 VL with N31S, V51A, T56A, T72A
B17: g28v2-D46-3_CLK19 (antibody, V domains shown)
VH: QVQLVQSGAEVKKPGAAVKVSCKASGYTFTDYYMHWVRQAPGQGLEWMGWINPRYGGTNYAQKFQDRVTMTRDTSISTTYMELRRLKSDETAVYYCTTVMADYRWPFDYWGQGTLVTVSS
VL: DIQMTQSPSSLSASVGDRVTISCQASQDINNCLNWYQQKPGKAPKLLIYDTSNLGTGVPSRFSGSGSGTDFTFTISSLQPEDIGTYYCQQYDTFGPGTKVDIK
B18: g28v2-D46-5_CLK19 (antibody, V domains shown)
VH: QVQLLQSGDEVKKPGASVRVSCKASGYTFTAYYLHWVRQAPGQGLEWMGWLYPQSGGTNYAQRFQGRVTMTRDTSISTAFMELSRLRSDDTAVYYCAPVLADYRWRFAYWGQGTLVTVSS
VL: B17 VL with S22T, C32Y, S52T, G55E, T56I, G84A, D92A, T93A
B19: g28v2-D46-4_CLK19 (antibody, V domains shown)
VH: B17 VH with M34I, R54T
VL: B17 VL with C32Y
B20: g28v2-D58-6_CLK19 (antibody, V domains shown)
VH: QVQLVQSGAEVKKPGASVKVSCKASGYTFTGYYIHWFRQAPGQGLEWMGWMNPSYGGTNYAQKFQGRVTMTRDTSINTAYMELSRLRSDDTAVYYCTPVLAAYRWRFDYWGQGTLVTVSS
VL: B5 VL with G17D, S26N, D28A, S30R, P80S, F93T, G96P, E101D
B21: g5-D78-1_CLK19 (antibody, V domains shown)
VH: QVQLVQSGAEVKKPGASVKVSCKASGYTFTGYFLHWVRQAPGQGLEWMGWINPNRGGVNYAQKFQGRVTMTRDTSINTAYMELSRLRSDDSAVYYCTPVLTNFRWRFDFWGQGTLVTVSS
VL: B17 VL with S22T, N30K, C32Y, K42T, G55E, G84A, D92E

Target: eOD-GT8 (monomeric ligand) (Human immunodeficiency virus 1, …)

Compared with B1, B2 is 800-fold higher in Kd: 0.0475 nM for the first, 38 nM for the second.

Going from B3 to B4, the Kd falls from 12 nM to 3.69 nM (3.3-fold).

B5 and B6 are within 1.5-fold of each other in Kd: 0.211 nM for the first, 0.303 nM for the second.

First: B7
Second: B8
The Kd of the first is 11-fold higher: 39 nM for the first, 3.48 nM for the second. The second binds more tightly here.

First: B9
Second: B10
The Kd of the first is 7.1-fold lower: 0.512 nM for the first, 3.65 nM for the second. The first binds more tightly here.

First: B11
Second: B12
The Kd of the first is 3.5-fold higher: 1.55 nM for the first, 0.444 nM for the second.

Going from B13 to B14, the Kd rises from 0.0455 nM to 20.7 nM (450-fold). The first binds more tightly here.

Compared with B15, B16 is 42-fold higher in Kd: 1.38 nM for the first, 57.3 nM for the second.

First: B17
Second: B18
The Kd of the first is 58-fold lower: 0.338 nM for the first, 19.7 nM for the second.

Compared with B19, B20 is 10-fold higher in Kd: 0.106 nM for the first, 1.06 nM for the second. The first binds more tightly here.

For B21, the Kd was 8 nM.
